Reference: article PMC6126843, “A dual-specific macrophage colony-stimulating factor antagonist of c-FMS and αvβ3 integrin for osteoporosis therapy” (PLoS Biology, 2018)

B1: M-CSF_(C31S), displayed on the yeast surface (ligand)
chain: EEVSEYCSHMIGSGHLQSLQRLIDSQMETSSQITFEFVDQEQLKDPVCYLKKAFLLVQDIMEDTMRFRDNTPNAIAIVQLQELSLRLKSCFTKDYEEHDKACVRTFYETPLQLLEKVKNVFNETKNLLDKDWNIFSKNCNNSFAECSSQ
modifications: Yeast-displayed Aga fusion with c-myc tag (carrier left out). Mature numbering +32 = precursor. Limits follow the M-CSF part of PDB 4WRL entity 2 (mature 1-149); the paper's own limits are not …

How the values were obtained:
[1] = target: αvβ3 integrin (Homo sapiens) (UniProt P06756); conditions: cited from earlier work
[2] = target: M-CSFRGD variant 4.22, purified soluble protein (human) (UniProt P09603); experiment: SPR; ProteOn XPR36; M-CSF variants immobilised by amine coupling; c-FMS or αvβ3 integrin flowed at 0, 12.5, 25, 50, 100 and 200 nM, 50 μl/min, 25 °C, PBS + 0.005% Tween; KD from the equilibrium binding phase; apparent (S9 Fig legend)
[3] = target: M-CSFRGD variant 4.24, purified soluble protein (human) (UniProt P09603); experiment: as above
[4] = target: M-CSFRGD variant 5.6, purified soluble protein (human) (UniProt P09603); experiment: as above
[5] = target: M-CSF_(αvβ3), monospecific M-CSF that can bind αvβ3 integrin (human) (UniProt P09603); experiment: as above
[6] = target: M-CSF_(c-FMS), monospecific M-CSF that can bind only c-FMS (human) (UniProt P09603); experiment: as above
c-FMS (Homo sapiens) = c-FMS (Homo sapiens) (UniProt P07333); conditions: cited from earlier work
[7] = target: T1, soluble Fc-conjugated human c-FMS (human, UniProt P07333 20-517); experiment: flow cytometry on cells; yeast surface display: yeast displaying M-CSF incubated with soluble c-FMS-Fc (0.5–2000 nM for the titration, 100 nM for the libraries, 50 nM for single clones) in PBS + 1% BSA, 1 h at room temperature; detected with goat anti-human Fc FITC; apparent; conditions: one partner purified
T1 construct: c-FMS (M-CSF receptor, CSF-1R), human, soluble form; Detected with goat anti-human Fc FITC; also called c-FMS-Fc; soluble c-FMS; source: bought: R&D systems
T1 sequence (P07333 20-517): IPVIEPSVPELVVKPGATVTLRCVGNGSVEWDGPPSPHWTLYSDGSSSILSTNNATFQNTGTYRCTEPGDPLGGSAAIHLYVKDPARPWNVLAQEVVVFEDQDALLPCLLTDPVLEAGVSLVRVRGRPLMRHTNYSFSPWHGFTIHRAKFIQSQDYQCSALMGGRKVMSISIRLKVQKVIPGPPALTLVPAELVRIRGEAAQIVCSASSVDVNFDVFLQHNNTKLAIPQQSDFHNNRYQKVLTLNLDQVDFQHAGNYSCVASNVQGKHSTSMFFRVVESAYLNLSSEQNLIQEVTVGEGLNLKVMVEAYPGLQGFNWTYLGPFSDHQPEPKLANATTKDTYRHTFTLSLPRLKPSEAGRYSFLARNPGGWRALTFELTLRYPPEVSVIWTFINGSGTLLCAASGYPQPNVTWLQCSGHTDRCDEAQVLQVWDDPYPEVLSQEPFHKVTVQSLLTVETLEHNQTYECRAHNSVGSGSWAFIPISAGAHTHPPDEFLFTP

Chain of c-FMS (Homo sapiens) (P07333 20-517): as above
Chain of αvβ3 integrin (Homo sapiens) (P06756 31-992, chain 1 of 2): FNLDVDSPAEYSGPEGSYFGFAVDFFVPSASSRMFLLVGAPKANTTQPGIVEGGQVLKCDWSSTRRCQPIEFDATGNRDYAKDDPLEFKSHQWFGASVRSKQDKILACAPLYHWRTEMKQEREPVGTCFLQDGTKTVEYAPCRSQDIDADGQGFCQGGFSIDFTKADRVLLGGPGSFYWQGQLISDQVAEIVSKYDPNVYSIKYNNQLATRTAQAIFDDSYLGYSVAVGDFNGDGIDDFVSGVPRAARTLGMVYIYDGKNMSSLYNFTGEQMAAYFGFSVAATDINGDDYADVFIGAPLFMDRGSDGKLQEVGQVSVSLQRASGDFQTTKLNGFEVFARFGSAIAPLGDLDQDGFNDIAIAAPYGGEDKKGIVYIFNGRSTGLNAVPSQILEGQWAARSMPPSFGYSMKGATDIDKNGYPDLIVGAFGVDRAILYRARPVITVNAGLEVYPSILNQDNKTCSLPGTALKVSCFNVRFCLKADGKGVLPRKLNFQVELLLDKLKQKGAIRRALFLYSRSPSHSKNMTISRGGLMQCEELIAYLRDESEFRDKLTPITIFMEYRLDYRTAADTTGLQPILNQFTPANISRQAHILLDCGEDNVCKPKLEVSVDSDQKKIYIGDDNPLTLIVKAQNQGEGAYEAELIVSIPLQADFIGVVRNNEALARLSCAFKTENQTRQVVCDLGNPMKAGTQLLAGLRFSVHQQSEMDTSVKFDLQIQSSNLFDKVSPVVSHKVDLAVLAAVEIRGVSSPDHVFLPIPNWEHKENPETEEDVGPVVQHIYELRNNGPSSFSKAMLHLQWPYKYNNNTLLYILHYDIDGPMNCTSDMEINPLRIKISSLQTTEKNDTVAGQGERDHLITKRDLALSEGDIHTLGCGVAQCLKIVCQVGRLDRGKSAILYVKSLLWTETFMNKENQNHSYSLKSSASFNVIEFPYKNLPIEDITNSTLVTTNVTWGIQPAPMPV
Chain of αvβ3 integrin (Homo sapiens) (P05106 27-718, chain 2 of 2, further chain): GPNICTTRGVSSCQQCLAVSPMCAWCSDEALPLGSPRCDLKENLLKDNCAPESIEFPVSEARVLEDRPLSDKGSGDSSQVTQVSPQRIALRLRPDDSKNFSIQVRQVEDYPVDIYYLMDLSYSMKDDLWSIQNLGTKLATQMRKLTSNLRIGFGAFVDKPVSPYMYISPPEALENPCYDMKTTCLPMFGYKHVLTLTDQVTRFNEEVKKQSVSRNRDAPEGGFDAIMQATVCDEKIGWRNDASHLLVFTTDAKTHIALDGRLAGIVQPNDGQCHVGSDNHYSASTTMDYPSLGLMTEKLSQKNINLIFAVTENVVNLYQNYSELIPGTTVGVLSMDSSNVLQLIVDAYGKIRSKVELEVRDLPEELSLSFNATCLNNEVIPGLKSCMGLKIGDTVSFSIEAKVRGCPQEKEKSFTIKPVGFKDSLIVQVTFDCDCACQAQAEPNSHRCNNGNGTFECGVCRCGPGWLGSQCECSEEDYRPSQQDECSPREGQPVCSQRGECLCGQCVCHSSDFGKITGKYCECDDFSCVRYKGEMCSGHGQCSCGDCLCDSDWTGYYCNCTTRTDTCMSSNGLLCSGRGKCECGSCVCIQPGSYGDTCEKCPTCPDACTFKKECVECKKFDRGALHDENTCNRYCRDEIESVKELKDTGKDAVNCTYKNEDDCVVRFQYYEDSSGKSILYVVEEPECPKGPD

Molecule	Kd [2] [nM]	Kd [3] [nM]	Kd [4] [nM]	further results
vitronectin (from UniProt P04004)				Kd [1]: 40.7 nM
soluble human αvβ3 integrin (from UniProt P06756 31-1048; P05106 27-718) (complex)	199	108	245	Kd [5]: 231 nM
human c-FMS soluble protein (from UniProt P07333 20-517) (receptor)	152	219	96	Kd [6]: 195 nM
M-CSF (from UniProt P09603)				Kd (c-FMS (Homo sapiens)): 13.6 nM
B1				Kd [7]: 20 nM
